# From patent US20250289867A1
# Biological target: MERS spike on pseudotyped lentiviral particles (MERS coronavirus) (UniProt K9N5Q8)
# Test: cell-based or functional assay
# Sequence of UniProt K9N5Q8 (K9N5Q8 18-1353): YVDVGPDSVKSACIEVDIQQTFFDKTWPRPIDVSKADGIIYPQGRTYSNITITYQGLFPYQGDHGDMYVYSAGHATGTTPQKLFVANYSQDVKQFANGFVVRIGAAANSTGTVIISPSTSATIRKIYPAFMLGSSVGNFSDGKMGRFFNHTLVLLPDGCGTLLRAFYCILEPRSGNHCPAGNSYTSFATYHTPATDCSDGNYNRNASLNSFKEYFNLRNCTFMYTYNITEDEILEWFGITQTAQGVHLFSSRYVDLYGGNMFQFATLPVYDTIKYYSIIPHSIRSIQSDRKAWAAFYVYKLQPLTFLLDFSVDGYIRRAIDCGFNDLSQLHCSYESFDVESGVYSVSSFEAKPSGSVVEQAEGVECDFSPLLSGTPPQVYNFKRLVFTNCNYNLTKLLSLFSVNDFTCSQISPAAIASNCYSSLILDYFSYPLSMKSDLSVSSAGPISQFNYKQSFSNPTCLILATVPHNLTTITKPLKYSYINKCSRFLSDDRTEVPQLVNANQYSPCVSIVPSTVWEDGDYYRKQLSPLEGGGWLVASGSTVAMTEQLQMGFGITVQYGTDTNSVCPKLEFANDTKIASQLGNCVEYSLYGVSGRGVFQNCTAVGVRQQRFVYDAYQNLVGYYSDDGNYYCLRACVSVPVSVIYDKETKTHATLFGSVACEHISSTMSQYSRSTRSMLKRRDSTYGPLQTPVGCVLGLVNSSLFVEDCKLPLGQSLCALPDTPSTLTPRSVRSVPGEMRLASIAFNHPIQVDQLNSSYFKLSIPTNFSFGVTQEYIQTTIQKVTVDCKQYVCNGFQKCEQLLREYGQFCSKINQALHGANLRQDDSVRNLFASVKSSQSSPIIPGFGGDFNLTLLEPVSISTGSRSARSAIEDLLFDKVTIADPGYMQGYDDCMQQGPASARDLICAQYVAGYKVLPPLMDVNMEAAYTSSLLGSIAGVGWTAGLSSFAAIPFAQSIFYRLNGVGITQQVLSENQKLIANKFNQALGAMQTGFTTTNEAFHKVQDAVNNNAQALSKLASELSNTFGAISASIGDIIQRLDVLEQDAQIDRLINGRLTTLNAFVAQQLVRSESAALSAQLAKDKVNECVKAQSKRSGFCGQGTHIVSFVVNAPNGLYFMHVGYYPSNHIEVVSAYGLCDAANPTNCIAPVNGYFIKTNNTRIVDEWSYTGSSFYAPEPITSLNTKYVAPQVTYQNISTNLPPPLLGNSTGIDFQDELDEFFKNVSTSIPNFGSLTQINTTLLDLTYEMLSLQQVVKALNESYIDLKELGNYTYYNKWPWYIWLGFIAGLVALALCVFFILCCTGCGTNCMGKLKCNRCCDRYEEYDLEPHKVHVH
Substance,"IC50, pseudovirus neutralization assay, H1650 target cells [pM]","IC50, pseudovirus microneutralization assay, H1650 target cells [pM]"
"NA75-DPP4, displayed on lentiviral-based multivalent particles (from UniProt P27487 30-766) (receptor)",0.87,–
DPP4 recombinant protein (from UniProt P27487 39-766) (receptor),–,> 48000
